Test results published in publication PMC9482650, “Quantitative fragmentomics allow affinity mapping of interactomes” (Nature Communications, 2022).
Positions count from the first letter of the chain named.

T1: APBA1_2, Q02410
T1 sequence (Q02410 742-832, limits assumed, looked up): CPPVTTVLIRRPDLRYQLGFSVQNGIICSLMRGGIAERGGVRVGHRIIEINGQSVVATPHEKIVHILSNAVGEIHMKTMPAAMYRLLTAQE

T2: APBA2_1, Q99767
T2 sequence (Q99767 563-664, limits assumed, looked up): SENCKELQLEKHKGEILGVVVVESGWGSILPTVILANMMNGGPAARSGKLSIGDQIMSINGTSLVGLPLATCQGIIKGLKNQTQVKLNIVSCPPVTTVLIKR

T3: ARHGEF11, O15085
T3 sequence (O15085 42-136, limits assumed, looked up): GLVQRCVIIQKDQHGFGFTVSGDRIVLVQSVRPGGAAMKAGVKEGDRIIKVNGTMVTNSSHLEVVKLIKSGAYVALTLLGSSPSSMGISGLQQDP

T4: DLG3_1, Q92796
T4 sequence (Q92796 125-227, limits assumed, looked up): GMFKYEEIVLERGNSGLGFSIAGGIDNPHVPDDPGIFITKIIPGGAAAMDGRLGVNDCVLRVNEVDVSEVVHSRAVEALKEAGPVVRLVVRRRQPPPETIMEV

T5: LIN7A, O14910
T5 sequence (O14910 103-200, limits assumed, looked up): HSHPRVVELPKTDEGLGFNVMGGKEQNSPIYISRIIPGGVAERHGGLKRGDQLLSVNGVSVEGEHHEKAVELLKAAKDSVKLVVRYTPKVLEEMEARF

T6: LIN7C, Q9NUP9
T6 sequence (Q9NUP9 88-185, limits assumed, looked up): T5 sequence (O14910 103-200, limits assumed, looked up) with D13E, V20I, V40I, E42D, K77Q, D78G, S79K, A96S

T7: PARD3B_1, Q8TEW8
T7 sequence (Q8TEW8 196-299, limits assumed, looked up): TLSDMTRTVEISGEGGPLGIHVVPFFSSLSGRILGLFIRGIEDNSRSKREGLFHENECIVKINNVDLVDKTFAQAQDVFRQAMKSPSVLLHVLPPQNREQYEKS

T8: PCLO, Q9Y6V0
T8 sequence (Q9Y6V0 4491-4600, limits assumed, looked up): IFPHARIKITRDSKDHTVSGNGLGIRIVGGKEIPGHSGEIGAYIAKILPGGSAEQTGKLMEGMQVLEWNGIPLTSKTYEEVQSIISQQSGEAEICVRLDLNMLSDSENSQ

T9: RAPGEF6, Q8TEU7
T9 sequence (Q8TEU7 525-625, limits assumed, looked up): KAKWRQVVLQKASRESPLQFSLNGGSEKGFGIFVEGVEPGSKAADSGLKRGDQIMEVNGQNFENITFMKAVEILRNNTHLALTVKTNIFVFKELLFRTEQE

T10: SNTG2, Q9NY99
T10 sequence (Q9NY99 68-166, limits assumed, looked up): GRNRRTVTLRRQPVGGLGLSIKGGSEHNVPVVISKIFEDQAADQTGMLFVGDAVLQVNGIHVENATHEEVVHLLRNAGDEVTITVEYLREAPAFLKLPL

T11: TX1BP3, O14907
T11 sequence (O14907 10-122, limits assumed, looked up): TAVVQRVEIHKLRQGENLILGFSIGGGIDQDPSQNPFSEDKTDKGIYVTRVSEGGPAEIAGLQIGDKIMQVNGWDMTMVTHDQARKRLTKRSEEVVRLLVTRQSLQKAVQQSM


Legend:
Experiment in all cases: holdup assay
Set-up in all cases: key: below the threshold = too weak to quantify, mostly under pKd 3.1 to 4
Conditions in all cases: plain residues with an end cap or a label only (N-terminal biotin on a linker: ado-ado)
AHNAK1, Q09666 = molecular target: AHNAK1, Q09666
APBA1_2, Q02410 = molecular target: T1, APBA1_2, Q02410
APBA2_1, Q99767 = molecular target: T2, APBA2_1, Q99767
ARHGEF11, O15085 = molecular target: T3, ARHGEF11, O15085
DLG1_2, Q12959 = molecular target: DLG1_2, Q12959
DLG2_3, Q15700 = molecular target: DLG2_3, Q15700
DLG3_1, Q92796 = molecular target: T4, DLG3_1, Q92796
DLG5_1, Q8TDM6 = molecular target: DLG5_1, Q8TDM6
FRMPD2_3, Q68DX3 = molecular target: FRMPD2_3, Q68DX3
FRMPD3, Q5JV73 = molecular target: FRMPD3, Q5JV73
GRASP, Q7Z6J2 = molecular target: GRASP, Q7Z6J2
GRIP2_7, Q9C0E4 = molecular target: GRIP2_7, Q9C0E4
HTRA2, O43464 = molecular target: HTRA2, O43464
Inadl_10, Q8NI35 = molecular target: Inadl_10, Q8NI35
Inadl_9, Q8NI35 = molecular target: Inadl_9, Q8NI35
LIMK2, P53671 = molecular target: LIMK2, P53671
LIN7A, O14910 = molecular target: T5, LIN7A, O14910
LIN7C, Q9NUP9 = molecular target: T6, LIN7C, Q9NUP9
LNX1_1, Q8TBB1 = molecular target: LNX1_1, Q8TBB1
LNX1_2, Q8TBB1 = molecular target: LNX1_2, Q8TBB1
MAGI2_6, Q86UL8 = molecular target: MAGI2_6, Q86UL8
MAGI3_2, Q5TCQ9 = molecular target: MAGI3_2, Q5TCQ9
PARD3B_1, Q8TEW8 = molecular target: T7, PARD3B_1, Q8TEW8
PCLO, Q9Y6V0 = molecular target: T8, PCLO, Q9Y6V0
RAPGEF6, Q8TEU7 = molecular target: T9, RAPGEF6, Q8TEU7
SNTG2, Q9NY99 = molecular target: T10, SNTG2, Q9NY99
TX1BP3, O14907 = molecular target: T11, TX1BP3, O14907

Sequence of LNX1_2, Q8TBB1 (Q8TBB1 371-470): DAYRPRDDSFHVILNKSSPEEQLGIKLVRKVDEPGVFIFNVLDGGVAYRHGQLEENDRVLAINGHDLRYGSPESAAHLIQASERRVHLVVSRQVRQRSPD
Sequence of Inadl_9, Q8NI35 (Q8NI35 1530-1615): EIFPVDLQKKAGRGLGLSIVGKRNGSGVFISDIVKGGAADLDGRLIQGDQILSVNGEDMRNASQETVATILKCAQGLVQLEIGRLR
Sequence of DLG1_2, Q12959 (Q12959 314-412): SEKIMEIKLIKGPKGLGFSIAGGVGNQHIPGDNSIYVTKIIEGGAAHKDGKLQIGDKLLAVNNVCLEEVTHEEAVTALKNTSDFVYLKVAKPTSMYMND
Sequence of HTRA2, O43464 (O43464 355-458): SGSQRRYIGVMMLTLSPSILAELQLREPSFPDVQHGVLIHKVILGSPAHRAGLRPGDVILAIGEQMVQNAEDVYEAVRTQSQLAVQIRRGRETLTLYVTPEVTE
Sequence of AHNAK1, Q09666 (Q09666 4-100): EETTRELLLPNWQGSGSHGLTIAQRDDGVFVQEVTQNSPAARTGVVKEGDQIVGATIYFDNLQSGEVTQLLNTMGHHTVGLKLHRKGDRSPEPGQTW
Sequence of FRMPD3, Q5JV73 (Q5JV73 12-100): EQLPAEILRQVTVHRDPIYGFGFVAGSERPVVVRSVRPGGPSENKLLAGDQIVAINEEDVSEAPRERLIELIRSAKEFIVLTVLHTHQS
Sequence of GRIP2_7, Q9C0E4 (Q9C0E4 934-1023): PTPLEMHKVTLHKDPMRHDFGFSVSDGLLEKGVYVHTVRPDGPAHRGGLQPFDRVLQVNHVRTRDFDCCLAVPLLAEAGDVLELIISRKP
Sequence of MAGI2_6, Q86UL8 (Q86UL8 1141-1229): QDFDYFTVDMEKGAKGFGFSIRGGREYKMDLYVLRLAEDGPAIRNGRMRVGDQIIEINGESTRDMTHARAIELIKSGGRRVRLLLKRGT
Sequence of FRMPD2_3, Q68DX3 (Q68DX3 1073-1166): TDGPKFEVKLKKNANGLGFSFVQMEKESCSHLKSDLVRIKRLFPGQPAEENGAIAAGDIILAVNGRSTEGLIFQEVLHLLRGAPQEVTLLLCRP
Sequence of DLG5_1, Q8TDM6 (Q8TDM6 617-713): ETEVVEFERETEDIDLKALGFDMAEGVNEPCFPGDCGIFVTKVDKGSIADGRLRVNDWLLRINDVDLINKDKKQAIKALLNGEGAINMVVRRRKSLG
Sequence of MAGI3_2, Q5TCQ9 (Q5TCQ9 398-503): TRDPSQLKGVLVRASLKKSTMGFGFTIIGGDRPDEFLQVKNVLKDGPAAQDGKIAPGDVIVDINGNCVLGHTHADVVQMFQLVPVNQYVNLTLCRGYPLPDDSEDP
Sequence of LIMK2, P53671 (P53671 143-248): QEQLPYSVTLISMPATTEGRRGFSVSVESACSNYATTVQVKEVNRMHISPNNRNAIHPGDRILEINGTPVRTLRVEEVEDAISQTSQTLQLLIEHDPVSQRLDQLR
Sequence of LNX1_1, Q8TBB1 (Q8TBB1 261-371): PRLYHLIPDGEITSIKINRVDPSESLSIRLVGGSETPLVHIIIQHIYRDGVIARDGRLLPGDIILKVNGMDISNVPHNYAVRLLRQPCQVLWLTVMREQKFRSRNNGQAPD
Sequence of GRASP, Q7Z6J2 (Q7Z6J2 96-193): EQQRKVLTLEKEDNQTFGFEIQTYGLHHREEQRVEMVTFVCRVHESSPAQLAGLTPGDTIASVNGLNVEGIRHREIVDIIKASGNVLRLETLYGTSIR
Sequence of Inadl_10, Q8NI35 (Q8NI35 1673-1763): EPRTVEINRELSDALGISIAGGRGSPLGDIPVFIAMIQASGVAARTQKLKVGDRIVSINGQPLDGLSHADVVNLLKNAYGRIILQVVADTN

| Binder | pKd (AHNAK1, Q09666) | pKd (APBA1_2, Q02410) | pKd (APBA2_1, Q99767) | pKd (ARHGEF11, O15085) | pKd (DLG1_2, Q12959) | pKd (DLG2_3, Q15700) | pKd (DLG3_1, Q92796) | pKd (DLG5_1, Q8TDM6) | pKd (FRMPD2_3, Q68DX3) | pKd (FRMPD3, Q5JV73) | pKd (GRASP, Q7Z6J2) | pKd (GRIP2_7, Q9C0E4) | pKd (HTRA2, O43464) | pKd (Inadl_10, Q8NI35) | pKd (Inadl_9, Q8NI35) | pKd (LIMK2, P53671) | pKd (LIN7A, O14910) | pKd (LIN7C, Q9NUP9) | pKd (LNX1_1, Q8TBB1) | pKd (LNX1_2, Q8TBB1) | also measured |
| --- | --- | --- | --- | --- | --- | --- | --- | --- | --- | --- | --- | --- | --- | --- | --- | --- | --- | --- | --- | --- | --- |
| TSQESEDTYL [TBC1D10A, Q9BXI6] | below the threshold | below the threshold | below the threshold | below the threshold | below the threshold | below the threshold | below the threshold | below the threshold | below the threshold | 4.39 | below the threshold | below the threshold | below the threshold | below the threshold | 3.58 | below the threshold | below the threshold | below the threshold | below the threshold | below the threshold | pKd (MAGI2_6, Q86UL8): 3.98; pKd (MAGI3_2, Q5TCQ9): below the threshold; pKd (PARD3B_1, Q8TEW8): 4.58; pKd (PCLO, Q9Y6V0): below the threshold; pKd (RAPGEF6, Q8TEU7): below the threshold; pKd (SNTG2, Q9NY99): below the threshold; pKd (TX1BP3, O14907): below the threshold |
| HLRARKSEWV [GJD4, Q96KN9] | below the threshold | 4.73 | below the threshold | below the threshold | 4.18 | 4.16 | below the threshold | below the threshold | below the threshold | below the threshold | 4.01 | 4.04 | 3.94 | below the threshold | 3.91 | below the threshold | below the threshold | below the threshold | below the threshold | 3.75 | pKd (MAGI2_6, Q86UL8): 3.85; pKd (MAGI3_2, Q5TCQ9): 4.04; pKd (PARD3B_1, Q8TEW8): below the threshold; pKd (PCLO, Q9Y6V0): below the threshold; pKd (RAPGEF6, Q8TEU7): 3.5; pKd (SNTG2, Q9NY99): below the threshold; pKd (TX1BP3, O14907): below the threshold |
| DDPSTAETVL [ABCA7, Q8IZY2] | below the threshold | below the threshold | below the threshold | 3.98 | 3.78 | 3.88 | below the threshold | below the threshold | below the threshold | below the threshold | below the threshold | below the threshold | below the threshold | below the threshold | below the threshold | below the threshold | below the threshold | below the threshold | below the threshold | below the threshold | pKd (MAGI2_6, Q86UL8): 3.83; pKd (MAGI3_2, Q5TCQ9): below the threshold; pKd (PARD3B_1, Q8TEW8): 4.65; pKd (PCLO, Q9Y6V0): below the threshold; pKd (RAPGEF6, Q8TEU7): below the threshold; pKd (SNTG2, Q9NY99): 4.19; pKd (TX1BP3, O14907): below the threshold |
| PEYLGLDVPV [ERBB2, P04626] | below the threshold | below the threshold | below the threshold | 3.83 | below the threshold | below the threshold | below the threshold | below the threshold | below the threshold | 3.78 | below the threshold | below the threshold | below the threshold | below the threshold | below the threshold | below the threshold | below the threshold | below the threshold | 3.58 | below the threshold | pKd (MAGI2_6, Q86UL8): below the threshold; pKd (MAGI3_2, Q5TCQ9): below the threshold; pKd (PARD3B_1, Q8TEW8): below the threshold; pKd (PCLO, Q9Y6V0): below the threshold; pKd (RAPGEF6, Q8TEU7): below the threshold; pKd (SNTG2, Q9NY99): below the threshold; pKd (TX1BP3, O14907): 4.19 |
| AKPSRISTVV [IQSEC2, Q5JU85] | below the threshold | 3.49 | below the threshold | 4.59 | 5.52 | 4.34 | 4.3 | below the threshold | below the threshold | below the threshold | 4.41 | below the threshold | below the threshold | below the threshold | below the threshold | below the threshold | below the threshold | below the threshold | 4.34 | 3.52 | pKd (MAGI2_6, Q86UL8): below the threshold; pKd (MAGI3_2, Q5TCQ9): 5.42; pKd (PARD3B_1, Q8TEW8): below the threshold; pKd (PCLO, Q9Y6V0): below the threshold; pKd (RAPGEF6, Q8TEU7): below the threshold; pKd (SNTG2, Q9NY99): below the threshold; pKd (TX1BP3, O14907): 3.76 |
